Like-named read-outs stand apart in the source and are kept apart here. Starred links: 1 amine or outer side, 2 acyl side, 3 side chain; linkers in the order of their positions; H or OH if unused. Positions of bridges follow the written chain, without caps; N, C: chain ends. Non-standard residues stand in square brackets, D forms with d. Residues, ends and D or L forms follow the SMILES beside them. Primed or numbered codes have the meaning given here. Chains are numbered I, II in the order given. No end group written: not given here. OCOPEG13OCO = 3,6,9,12,15,18,21,24,27,30,33-undecaoxapentatriacontane-1,35-diylbis(bicarbonate); CO(CH2CH2O)9CH2CH2CO = O=C(CCOCCOCCOCCOCCOCCOCCOCCOCCOCCC(=O)[*:2])[*:1]; X1 = O=C(OCCOCCOCCOCCOCCOCCOCCOCCOCCOCCOCCOCCOC(=O)[*:2])[*:1]; NMeF = CN[C@@H](Cc1ccccc1)C(=O)O; Ahp(2) = CCCCC[C@H](N)C(=O)O; NMeC = CN[C@@H](CS)C(=O)O; Nle = CCCC[C@H](N)C(=O)O; Ahp′ = not defined here; Abu = CC[C@H](N)C(=O)O
B1: GFs_c-Met-00014336-PEG13 dimer (peptide SEQ ID NO: 34, GFs_c-Met-00014336p; linker SEQ ID NO: 37) (peptide)
peptide: {CH2CO}-[NMeF]TAVS[NMeF]DED[Ahp(2)]PRWS[NMeC]
chain: GK[OCOPEG13OCO]KG
modifications: thioether I:N-I:15 (inferred); also: homodimer: two cyclic peptides joined by linker G-K-OCOPEG13OCO-K-G, peptide C-terminus on linker

How the values were obtained:
c-Met = target: T1, c-Met (Homo sapiens, UniProt P08581); assay: Phospho-c-Met AlphaLISA assay (c-Met agonist activity) in A431 cells; type: cell-based; settings: 15 minutes of stimulation; for EC50: concentration of peptide showing 50% activity of the signal induced by HGF, A431 cells, read-out: C-Met Agonist Activity (C50; nM); for C-Met Agonist Activity (2 or 1): c-Met phosphorylation (Tyr1234/1235) in A431 cells, maximum signal induced by HGF = 100%
T1 construct: endogenous in cells; host or cells: A431 (human)
Procedure: To evaluate the activation potency (c-Met agonist activity) of c-Met of the peptide complex of the present invention, the phosphorylation of c-Met was verified. Human A431 cells were cultured in DMEM high glucose, GlutaMAX (registered trademark) Supplement, pyruvate (Thermo Fisher Scientific), containing 10% FBS (Gibco). After cells were detached using Accutase (Innovative cell technologies), they were seeded into a 96-well plate at 10000 cells per well and cultured overnight. The next day, for starvation, the culture medium was changed to DMEM high glucose, GlutaMAX (registered trademark) Supplement, pyruvate (Thermo Fisher Scientific), containing 0.1% BSA (Sigma-Aldrich), and the cells were cultured overnight. Then, the peptide complex synthesized in Example 3 or Recombinant Human HGF Protein (R&D systems) as a control was added, and after 15 minutes of stimulation, cells were lysed in a Lysis Buffer provided in the AlphaLISA (registered trademark) SureFire (registered trademark) Ultra™ Phospho-c-Met (Tyr1234/1235) kit (PerkinElmer). The assay was performed according to the kit protocol, and a SpectraMax (registered trademark) Paradigm (registered trademark) multimode microplate reader (Molecular Devices, LLC.) was used for signal detection. […] In the same manner, the C50 value was calculated by GraphPad Prism as the concentration of peptide showing 50% activity of the signal induced by HGF. […] Further, for a complex (GFs_c-Met-00014336-PEG13 dimer; complex no. 49 in Table 4) of a peptide (SEQ ID NO: 34) and a linker (SEQ ID NO: 37), a graph of c-Met agonist activity is shown in FIG. 1.

human c-Met protein [1] = target: T2, human c-Met protein (human, UniProt P08581 25-1390); assay: cell-based or functional assay
human c-Met protein [2] = target: T2, human c-Met protein; assay: cell-based or functional assay; remark: listed apart in the source
human c-Met protein [3] = target: T2, human c-Met protein; assay: cell-based or functional assay; remark: listed apart in the source

T2 sequence (P08581 25-1390): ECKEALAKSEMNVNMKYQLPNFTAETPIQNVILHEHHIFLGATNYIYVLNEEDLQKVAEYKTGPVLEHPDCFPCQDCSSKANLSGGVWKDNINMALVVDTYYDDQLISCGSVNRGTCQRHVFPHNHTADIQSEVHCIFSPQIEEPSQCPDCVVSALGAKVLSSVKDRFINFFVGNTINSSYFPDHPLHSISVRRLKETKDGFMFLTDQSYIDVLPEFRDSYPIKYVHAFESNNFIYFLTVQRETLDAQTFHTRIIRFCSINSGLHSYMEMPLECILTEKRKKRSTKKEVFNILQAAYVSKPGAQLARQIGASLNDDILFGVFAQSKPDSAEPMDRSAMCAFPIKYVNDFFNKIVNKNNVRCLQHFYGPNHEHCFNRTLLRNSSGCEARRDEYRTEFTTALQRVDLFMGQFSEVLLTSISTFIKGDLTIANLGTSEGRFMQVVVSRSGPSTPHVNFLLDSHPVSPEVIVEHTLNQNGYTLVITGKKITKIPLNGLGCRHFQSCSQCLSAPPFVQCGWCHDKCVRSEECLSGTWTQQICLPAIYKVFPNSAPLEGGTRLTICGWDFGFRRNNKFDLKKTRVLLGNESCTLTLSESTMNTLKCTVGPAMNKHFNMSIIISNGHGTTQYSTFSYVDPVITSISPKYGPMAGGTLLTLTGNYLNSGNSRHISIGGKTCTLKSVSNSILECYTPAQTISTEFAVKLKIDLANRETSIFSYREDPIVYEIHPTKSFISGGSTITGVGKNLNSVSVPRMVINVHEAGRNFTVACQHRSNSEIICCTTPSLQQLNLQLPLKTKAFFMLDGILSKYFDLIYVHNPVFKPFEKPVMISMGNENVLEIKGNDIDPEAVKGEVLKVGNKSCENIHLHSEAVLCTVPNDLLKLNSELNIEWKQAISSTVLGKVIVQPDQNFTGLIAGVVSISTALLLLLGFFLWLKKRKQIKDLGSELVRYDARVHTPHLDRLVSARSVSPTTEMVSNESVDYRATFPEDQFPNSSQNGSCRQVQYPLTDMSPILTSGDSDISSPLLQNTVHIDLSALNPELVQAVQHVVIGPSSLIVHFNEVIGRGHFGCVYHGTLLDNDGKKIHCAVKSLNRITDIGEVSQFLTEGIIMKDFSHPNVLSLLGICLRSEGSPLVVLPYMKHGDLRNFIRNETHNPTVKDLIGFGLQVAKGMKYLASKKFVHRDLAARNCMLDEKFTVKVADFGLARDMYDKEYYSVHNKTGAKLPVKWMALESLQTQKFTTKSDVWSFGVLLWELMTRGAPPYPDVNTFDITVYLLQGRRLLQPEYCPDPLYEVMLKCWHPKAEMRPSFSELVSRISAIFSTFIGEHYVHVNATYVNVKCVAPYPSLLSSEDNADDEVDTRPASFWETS
T1 sequence (P08581 25-1390): as above

Molecule	C-Met Agonist Activity (2 or 1) (c-Met)	also measured
CCCCC[C@@H]1NC(=O)[C@H](CC(=O)O)NC(=O)[C@H](CO)NC(=O)[C@H](CC(=O)O)NC(=O)[C@H](Cc2ccccc2)N(C)C(=O)[C@H](CO)NC(=O)[C@H](C(C)C)NC(=O)[C@H](C)NC(=O)[C@H]([C@@H](C)O)NC(=O)[C@H](Cc2ccccc2)N(C)C(=O)CSC[C@@H](C(=O)NCC(=O)N[C@@H](CCCCNC(=O)CCOCCOCCOCCOCCOCCOCCOCCOCCOCCC(=O)NCCCC[C@H](NC(=O)CNC(=O)[C@@H]2CSCC(=O)N(C)[C@@H](Cc3ccccc3)C(=O)N[C@@H]([C@@H](C)O)C(=O)N[C@@H](C)C(=O)N[C@@H](C(C)C)C(=O)N[C@@H](CO)C(=O)N(C)[C@@H](Cc3ccccc3)C(=O)N[C@@H](CC(=O)O)C(=O)N[C@@H](CO)C(=O)N[C@@H](CC(=O)O)C(=O)N[C@@H](CCCCC)C(=O)N3CCC[C@H]3C(=O)N[C@@H](CCCNC(=N)N)C(=O)N[C@@H](Cc3c[nH]c4ccccc34)C(=O)N[C@@H](C)C(=O)N2C)C(N)=O)C(N)=O)N(C)C(=O)[C@H](C)NC(=O)[C@H](Cc2c[nH]c3ccccc23)NC(=O)[C@H](CCCNC(=N)N)NC(=O)[C@@H]2CCCN2C1=O [Peptide 44] (I: {CH2CO}-[NMeF]TAVS[NMeF]DSD[Ahp(2)]PRWA[NMeC]GK-NH2 / II: {CH2CO}-[NMeF]TAVS[NMeF]DSD[Ahp(2)]PRWA[NMeC]GK-NH2; linker I:17-II:17 via CO(CH2CH2O)9CH2CH2CO (inferred); thioether I:N-I:15, II:N-II:15 (inferred))		EC50 (c-Met): 0.33 nM
12 ({CH2CO}-[NMeF]VYVS[NMeF]DDD[Ahp′]PRWD[NMeC]; thioether N-15 (inferred); not fully specified; reading uncertain; also: conjugated moiety via linker) [Peptide 12]	2 (those showing more than 50% activation were described as 2)	
11 ({CH2CO}-[NMeF]VYVS[NMeF]DDD[Ahp′]PRW[Abu][NMeC]; thioether N-15 (inferred); not fully specified; reading uncertain; also: conjugated moiety via linker) [Peptide 11]	2 (those showing more than 50% activation were described as 2)	
5 ([NMeF]WYVS[NMeF]DDD[Ahp′]PRWS[NMeC]; not fully specified; reading uncertain) [Peptide 5]	2 (those showing more than 50% activation were described as 2)	
14 ({CH2CO}-[NMeF]VYVS[NMeF]DDD[Ahp′]PRWQ[NMeC]; thioether N-15 (inferred); not fully specified; reading uncertain; also: conjugated moiety via linker) [Peptide 14]	2 (those showing more than 50% activation were described as 2)	
9 ([NMeF]VYVS[NMeF]DDDSPRWS[NMeC]; also: conjugated moiety via linker, site not given here) [Peptide 9]	2 (those showing more than 50% activation were described as 2)	
CCCCC[C@@H]1NC(=O)[C@H](CC(=O)O)NC(=O)[C@H](CCC(=O)O)NC(=O)[C@H](CC(=O)O)NC(=O)[C@H](Cc2ccccc2)N(C)C(=O)[C@H](CO)NC(=O)[C@H](C(C)C)NC(=O)[C@H](C)NC(=O)[C@H]([C@@H](C)O)NC(=O)[C@H](Cc2ccccc2)N(C)C(=O)CSC[C@@H](C(=O)NCC(=O)N[C@@H](CCCCNC(=O)OCCOCCOCCOCCOCCOCCOCCOCCOCCOCCOCCOCCOC(=O)NCCCC[C@H](NC(=O)CNC(=O)[C@@H]2CSCC(=O)N(C)[C@@H](Cc3ccccc3)C(=O)N[C@@H]([C@@H](C)O)C(=O)N[C@@H](C)C(=O)N[C@@H](C(C)C)C(=O)N[C@@H](CO)C(=O)N(C)[C@@H](Cc3ccccc3)C(=O)N[C@@H](CC(=O)O)C(=O)N[C@@H](CCC(=O)O)C(=O)N[C@@H](CC(=O)O)C(=O)N[C@@H](CCCCC)C(=O)N3CCC[C@H]3C(=O)N[C@@H](CCCNC(=N)N)C(=O)N[C@@H](Cc3c[nH]c4ccccc34)C(=O)N[C@@H](CO)C(=O)N2C)C(N)=O)C(N)=O)N(C)C(=O)[C@H](CO)NC(=O)[C@H](Cc2c[nH]c3ccccc23)NC(=O)[C@H](CCCNC(=N)N)NC(=O)[C@@H]2CCCN2C1=O [Peptide 49] (I: {CH2CO}-[NMeF]TAVS[NMeF]DED[Ahp(2)]PRWS[NMeC]GK-NH2 / II: {CH2CO}-[NMeF]TAVS[NMeF]DED[Ahp(2)]PRWS[NMeC]GK-NH2; linker I:17-II:17 via X1 (inferred); thioether I:N-I:15, II:N-II:15 (inferred); C-terminus assumed)		EC50 (c-Met): 0.67 nM
6 ([NMeF]VDVS[NMeF]DDD[Ahp′]PRWS[NMeC]; not fully specified; reading uncertain) [Peptide 6]	2 (those showing more than 50% activation were described as 2)	
2 ({CH2CO}-[MeA]VYVS[NMeF]DDD[Ahp′]PRWS[NMeC]; thioether N-15 (inferred); not fully specified; reading uncertain; also: conjugated moiety via linker) [Peptide 2]	1 (those showing less than 50% activation as 1)	
4 (AVYVS[NMeF]DDD[Ahp′]PRWS[NMeC]; not fully specified (N-terminus, bridges); reading uncertain; also: conjugated moiety via linker) [Peptide 4]	1 (those showing less than 50% activation as 1)	
Recombinant Human HGF Protein (R&D systems) (from UniProt P14210 32-728) (ligand)		EC50, HUVEC cell proliferation (CellTiter-Glo) (human c-Met protein [1]): 0.37 nM; EC50, phospho-c-Met AlphaLISA, A431 cells (human c-Met protein [1]): 0.66 nM
16 ({CH2CO}-[NMeF]VAVS[NMeF]DDD[Ahp′]PRWS[NMeC]; thioether N-15 (inferred); not fully specified; reading uncertain; also: conjugated moiety via linker) [Peptide 16]	1 (those showing less than 50% activation as 1)	
7 ({CH2CO}-[NMeF]VYVS[NMeF]DVD[Ahp′]PRWS[NMeC]; thioether N-15 (inferred); not fully specified; reading uncertain; also: conjugated moiety via linker) [Peptide 7]	2 (those showing more than 50% activation were described as 2)	
13 ({CH2CO}-[NMeF]VYVS[NMeF]DDD[Ahp′]PRWH[NMeC]; thioether N-15 (inferred); not fully specified; reading uncertain; also: conjugated moiety via linker) [Peptide 13]	2 (those showing more than 50% activation were described as 2)	
8 ({CH2CO}-[NMeF]VYVS[NMeF]DDD[Nle]PRWS[NMeC]; thioether N-15 (inferred); not fully specified; also: conjugated moiety via linker) [Peptide 8]	2 (those showing more than 50% activation were described as 2)	
1 ({CH2CO}-[NMeF]VYVS[NMeF]DDD[Ahp′]PRWS[NMeC]; thioether N-15 (inferred); not fully specified; reading uncertain; also: conjugated moiety via linker) [Peptide 1]	2 (those showing more than 50% activation were described as 2)	
B1		C-Met Agonist Activity (C50; nM): phospho-c-Met AlphaLISA, A431 cells (human c-Met protein [2]): 0.67 nM; EC50, HUVEC cell proliferation (CellTiter-Glo) (human c-Met protein [3]): 0.55 nM; EC50, phospho-c-Met AlphaLISA, A431 cells (FIG. 1) (human c-Met protein [3]): 0.72 nM
